The results in this text go back to article PMC6859792.

The subject of the series is O=P(O)(O)O[C@H]1O[C@H]([C@H](O)CO)[C@@H](O)[C@H](O)[C@@H]1O. The series can be described thus: purified protein. The following applies: pH 7.4, 25 °C, GTP 1.0 mM, MgCl2 2.0 mM, pyrophosphatase 1 U.

With “Cj1423 (Campylobacter jejuni subsp. jejuni NCTC 11168 = ATCC 700819)”, the Km was 495 ± 65 µM, the kcat came to 1.35 ± 0.04 s⁻¹ and the kcat/Km was 2700 ± 400 M⁻¹ s⁻¹.
